This series can be described thus: label from the status in PepcDB records.
On to “MGIFETMSQVRRLPQALAAAVATPPALAGSGTLRGLIGLDDSLGEAVTTRAEALTIPAVLRARNLLSTTVARTPLVCDGTLPPFVPVAAPPGAATMQTPFHRMLATADDLLFNGVACWALDRDESGTCIGAIHIPLDTWQIEENTVRVNGKAVDPMEVCIFVGIHGGLLTHASETFTDARNLVRAAARVAQNPAALIELRQTNNAQLSPDDVDRIINGYVAARRGRNSGVGFSSSGLEVHEHEMAKENLLIEGRNAAAVDVARAMNVPAAFIDATVGGTSLSYQNAASRMIELVTFGVEPLMSAIEARLNQPDMHADHLANPLKFDPAALLDAIPTTPTIGAQPHGENS”, for which the protein production result is listed as “not failed”.
The entry for “MGIHKPKFYAVRAGRDKGVFSSWEECRKAIYGFSGAVYRSFPTLEEAQAWFKGETLSDPLKAEDDSLRDDRTEYDVYTDGSYVNGQYAWAYAFVKDGKVHYEDADVGKNPAAATMRNVAGEIAAALYAVKKASQLGVKIRILHDYAGIAFWATGEWKAKNEFTQAYAKLMNQYRGIYSFEKVKAHSGNEFNDYVDMKAKSALGIRDLEHHHHHH” is “failed”; for “MGIHLFWDSRVPVGLSRPVSEELSAVLEMPVSRIDDGIFPLEGFDPVRNQYDAVKVLLKLDMFRRRMPQIFKPADMDLEFYNKFNHLHEKILLVTPGDLYEPLADFVFGLAYPKLGVAIVSPHRLQNEFYGKYADDSALIDRIVKEGAHEIGHLFGLGHCDNPGCIMYCPRNLDELDRKRKYFCGKCRVQLNGDTLEDDLFSLEHHHHHH” it is “not failed”.
The entry for “MGIIAWIVFGFVIGLIARAVVPGKQSLGFVMTTLLGIAGSLIGGLVASAFAGTSGTTFQTAGFIGSLVGAIVLLVIAGMVTTPRRRTV” is “failed”; for “MGIMPRKVLAIKNFKERFDLLPKLKGVIAEKQPDILVVVGNILKNEALEKEYERAHLARREPNRKVIHENEHYIIETLDKFFREIGELGVKTFVVPGKNDAPLKIFLRAAYEAETAYPNIRVLHEGFAGWRGEFEVIGFGGLLTEHEFEEDFVLKYPRWYVEYILKFVNELKPRRLVTIFYTPPIGEFVDRTPEDPKHHGSAVVNTIIKSLNPEVAIVGHVGKGHELVGNTIVVNPGEFEEGRYAFLDLTQHKIKLEQFS” it is “not failed”.
Consider “MGIRHIALFRWNDTVTPDQVEQVITALSKLPAAIPELKNYAFGADLGLAAGNYDFAVVADLDGEDGFRAYQDHPDHRAALAIIAPMLADRVAVQFAL”, for which the protein production entry is recorded as “not failed”.
Take “MGIRVKRRQHQHLLESLVHSTAKQQGDFTKTAELATELLCQNLAVSLVSIWIFSADQGTQSLVAQFGSMALQDTYRPSLLHTVPRYLNELKNYRHIDAGNTLIDPRLTELVDSYFIPRQILSSLDVGIRINGHLEGVLCIERAQVTHHWHDSEIHLACQMADQLALTLATKHAYDKEERLSLFRCAIEQSRQMSMLEHHHHHH”: the protein production entry is “not failed”.
Consider “MGKEITENIIDVEFKCNHFKMNGYIGNNNIYRSNKNLQHIYINKRFVKSKIIIDAITESYKSIIPIGKHAVCFLNIEVDPSCIDVNIHPNKLEIKFEKEQEVYIELRDFLKVKLIHSNLIGLEHHHHHH”, for which the protein production entry is “failed”.
The entry for “MGKENLYVVLPSYNEEANIGKLINEWNVQFKDLEARGIKLEIIIVNDGSTDNTLAVAEAFSKHNDNVVVIDHGVNKGLGEGLNTGINYVLSQKQKGYMCLMDGDMTHEPKYIFSMLDKLQEEKLDCVIASRYRRGAKVEGLSLFRKFLSFGARVLYTIRLGIPNVRDYTCGYRLYKTSVLEKLHKVYGKRIVKETGFACMMELIVKVSKENFKIGEVPFVLKYQLKGGESKMKVGKTIKRSLLLLRVYKLEHHHHHH” is “not failed”.
For the sequence “MGKIFCIVQARMGSERLQGKVIKPILKKPMVIYTLDRLKKSKYIDKIVLATSSMERETPLVESCEEYGYDVFKGSEANVLKRYEQAAEKYGANIEDAVIRVTGDCPLIDPIIVDNVVTKFLSSDYDYVRLDVPNTFVRGFDVEIFSMKALKTVNSLINGGKIPKEEADMYKEHVTLYMYKHPNEFKVGYVKGDEFYSKDYRLCVDTKEDFELVKNIYEHFNDEFVSSKNVINYLDRNSEIAQINNDIKQKEVLEHHHHHH”, the protein production entry is listed as “not failed”.
As for “MGKKNPNARHTDAATPLTTDDSNSSSVSRRESATESKSASESESSPPRSNTKQSRTHKNVKASGKATVSSSSDSDQAVANSSANDEEKEPVCKIRIVPLEKLLASPKTKERPSRGSQQKNVTINDSSDEEPLKGSKLVLPARKSRNKNAS”, the entry is “failed”.
